Data taken from the supplement of paper PMC12636428.

Test system: Saccharomyces cerevisiae
Assay: transcriptional activation domain activity (GFP:mCherry ratio, weighted mean of sorted bins, harmonized to initial dataset scale) (arbitrary fluorescence ratio units); higher = stronger transcriptional activation
Conditions: beta-estradiol 1 µM; induction time 4 h
Outline: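 Each value is an activation activity: the read-weighted mean of bin median fluorescence, averaged across barcodes, then mapped linearly to the initial dataset scale. The tiles, fused to an estradiol-inducible synthetic transcription factor, sat at the yeast URA3 locus in GFP-reporter diploids. Cells spent 4 hours at 30 °C in SC with 1 uM beta-estradiol before sorting into 8 GFP:mCherry bins, and tiles below 50 reads were removed.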

Point of comparison: “LVLRSPAILTLEEEEDVAANLSQYSVQCSEVDKFLLTYVILKLKLVKGKCLIF”, “transcriptional activation domain activity” value 72300. Against it:
- LTDIQRASKLFRVMQDFRYLRLLVHRITLWIDDQHCASLGTNIYYTFLMRGRF — lower, 53200
- LTDWNVVSNKPITGPADPNEDVYIGRSETAMWMRVVSSWVCMLLYSWSLLAPV — lower, 68000
- LTEHSNVNSVIWTNDLLNLNFTNILNMGLYINPKNLIPISGNNNNNKSNEEDD — lower, 62300
- LTEVTSPRFIASIIACLCNHFAWFFYFIDPHHYHALFTPVEICLFFLVVVWFV — lower, 52100
- LTHEFRMGLIPLGLVALLSSGTTLTLICFICWRLVTWKLHYNTFLGYNQYVLL — lower, 50400
- LTHEPSKPPRRVPYTTLLHTVPLLIILTVLSAVVCYVHILLLRVFVKPVVIGT — lower, 46600
- LTHGRERSLIWKAKSSLNKWMFLVLRYFALLDLMFTVAVDTNFHVKYNTPFCI — higher, 72400
- LTHLRQLLEVKRTRRSLFVFRKTLGRIIRPVITWTYIFFFTLSMWTKPIVPLI — lower, 36900
- LTKKALDRLLGGDLSSLVAATISVSDWILDVAISSHDRISCILVTAHNTVLQA — lower, 35700
- LTLFVHFVKLSGILGEVLRRIYSPKAKINGYRTKTMSQTVWSLQRMLNEWLTN — lower, 53300
- LTNLNEIDFTNMFCNDNFIQNYNQGLMELLTEPTPGPSSSSCILPSTPTRPLS — higher, 83000
- LTPFSPPHFPLFLPSILFSFPPPLSSHFLLFPYALSPLLLLLFPPLCSSQFTP — lower, 45700
- LTPSSEQVIPACSTRTSTARASAGPSTKGAASRPSSSVSTRSRAPTPSSKKSC — lower, 29300
- LTQRNTCITGGPFWFFFFFFCLLVFSLPPSLKLFPTLPRITCLFSHVFFFFFP — lower, 15700
- LTQSRGFIWPPILLAVFFSALGGFYWWSASFFLLASPVAFAPCLFWVLLLFLF — lower, 18000
- LTVLGWLSTRKNMSFKSTPSNIRQSLKYSHIPLCLFYSSFTKFFLLLLLSIWD — lower, 42100
- LTWDVFKLALFFCLFQDISFSFCTFLLCFFLICFAYIVYPLSLSLLNGVLFDP — lower, 44900
- LTYRVYIMGIGIWMTYLGIGWFLCIILPFLFRFCRLMFWWRKLCFLQALFFFF — lower, 62200
- LVAFGMRFGGPTLLKLYFLPWMACHLIFALVPVIITLPMQWANHWIVALTYLH — lower, 57900
- LVANDIIMGIALGSHIIENSELAATWVDTIFSTWSVDGLRRMIVWLMGWPGGL — lower, 27800
- LVDVFGRIESCFQRIGIYTRVPPTTEMMDMIIQIMVEVLTILGIATKEMKQSR — lower, 63000
- LVEFLFAVNDEVANVLLVFFCVFVAGYFILTSLPLLFQQCPFQTPLTSFFWYA — lower, 38600
- LVGALGPPGGLYSSSAGDTQERRRRREGERALKGFEVGDKWAGEVARRLRRTA — lower, 60100
- LVGDANGCRVLPAFQLWPLLSTFNLLYSISSTSWLLYWVFTSLCYPAIFLVCL — lower, 55700
- LVGLDGRAKINCHFFAYVAFGSASLLVVFHVAFLINVSDVVLLLVMLVGLLRL — lower, 31900
- LVGLIGTLVAEPGLGADRFLLCFLFLSYYTLLTPSNLLVGIFWLVFFVLQLGY — lower, 39700
- LVHFILTGSDFIWFFSYTPEAVALYLFLVEWSKLNYFWVALMYIWNVMPLFLL — lower, 63600
- LVHGRWSYQRVADMHANFFYKNVIWTFGLFWYLPFNSFDATYLYHYTFILLCN — lower, 61000
- LVHNTLCMLDLIPLLSVRLLLMSLSICFGWYTIFVFAAGVIETVHLTIGRTFT — lower, 33900
- LVLKMILDRLAEPGDSLLNIDFSTLIHQFAKYLNKVPSNYVVLRIKIKICHLV — lower, 61000
- LVLLFSLYPLLLPLLPLFPFLLSLFLPLPLNLPKIPAAFFFVFLNIYFLFSIL — lower, 27700
- LVLQTDFLLMVERVDVCLEFLEAHRDFREVEIYLLRFQQCLTRAMTLIKMFFV — lower, 51900
- LVLRSVILSLMVFLVIFCSEYFLFPFCHSICCYGYIYILIDSWVSFSLLVFFS — lower, 65700
- LVLTGDAHSTYDVEVLVLMYILICGPFNFISGQLGEYRSIALVNVEFVVVWPA — lower, 63300
- LVLVAILGIVIPLDGFFGYLLTSLAIIWCSYSSSSMFTVVGRMSSMKWLVAYP — lower, 57000
- LVLYHDKFTTYLFAVFFFSLLPHVISSLFFFFFFFFWFLIKCIAMTPQFLFFF — lower, 34200
- LVMAHYLYANACAKGEHLIVTTWDMYYEKWGFMLIFWNMAGVPLSYCHCTLYL — lower, 65300
- LVMWTVILCPVFSFPDRGHGSMLFFLFKLCLAMLLTYLLAMLWFHCVYCIVVF — lower, 32700
- LVPWRPQKVLWLKVFYLLTRYLAFVDIPINLYSYLGFGISLPACQVLFSWYCW — lower, 56100
- LVQIVCVAGMHVTLYEQSCLYKCENLKRIITSFHHVNRKVRDAFINLYGKLNP — higher, 74600
- LVRDGILYFFVYTYRNALYQVYVVFGLAAVATLTLNAQLVLNTFLFIIFYVLV — lower, 56900
